This data set concerns the target Nucleocapsid protein (N) (SARS-CoV-2, UniProt P0DTC9 1-419). Description: EMSA; no sdAb; Hill fixed at 5. Particulars: protein: recombinant, tags: His6 or His6-MBP N-terminal fusion vector, TEV cleavage, chain copies: 2.

B1: 7mer dsRNA (dsRNA)
RNA 1: CACUGAC
RNA 2: GUCAGUG
As to B1, the Kd (label: 5'-FAM on strand 1, blunt) was found to be 480 ± 30 nM. On to CACUGAC (ssRNA) [7mer ssRNA], for which the Kd (label: 5'-FAM, single strand) was 560 ± 60 nM.

These data come from PMC8351461.
